# Results published in US20240245796A1 (PROFOUNDBIO US, published 2024).
# B1: F131 (antibody, V domains shown)
# VH: EVQLLESGGGVVQPGRSLRLSCAASGFTFSSYGMHWVRQAPGKGLEWVAVISYDGSNKYYADSVKGRFTISRANSKNTLYLQMNSLRAEDTAVYYCARPRAYYGAYGSSFDYWGQGTQVTVSS
# VL: EIVMTQSPSSVSASVGDRVAITCRASQGISSWLAWYQQKPGKAPKLLIYAASSLQSGVPSRFSGSGSGTDFTLTISSLQPEDFATYYCQQSYSTPLTFGGGTKVDIK
# notes: also called clone F131; F131 mAb
# B2: F131-LD038 (antibody, V domains shown)
# VH: B1 VH
# VL: B1 VL
# modifications: drug-linker LD038 (PB038, maleimide-PEG unit-Val-Cit-PAB-exatecan) on cysteines freed by TCEP reduction; positions not given
# notes: Antibody-drug conjugate of F131 (IgG1) with LD038; also called anti-huFOLR-1 conjugate F131-LD038; F131-038
# How the values were obtained:
# [1] = biological target: T1, rat FOLR1 extracellular domain linked to His tag (rat); assay: BLI, global 1:1 fit (15.6 nM row); all responses below quantification
# T1 construct: extracellular domain; Antigen in solution in BLI; also called Rat-Ag
# [2] = biological target: T2, cynomolgus monkey FOLR1 extracellular domain linked to His tag (cynomolgus monkey, UniProt A0A2K5U044 25-233); assay: BLI, global 1:1 fit (250 nM row)
# T2 construct: extracellular domain; Antigen in solution in BLI; It may be the same product as m14; also called Cyno-Ag; not shown: His tag
# [3] = biological target: T3, human FOLR1 extracellular domain linked to His tag (human, UniProt P15328 25-233, limits assumed); assay: BLI, global 1:1 fit (250 nM row)
# T3 construct: extracellular domain; It may be the same product as m13; also called Hu-FRα; Hu-Ag; not shown: His tag
# [4] = biological target: T4, human FOLR2 extracellular domain linked to His tag (human, UniProt P14207 17-230, limits assumed); assay: BLI, global 1:1 fit (15.6 nM row)
# T4 construct: extracellular domain; Antigen in solution in BLI; also called Hu-FRb; not shown: His tag
# [5] = biological target: T3, human FOLR1 extracellular domain linked …; assay: BLI, global 1:1 fit (15.6 nM row)
# [6] = biological target: T2, cynomolgus monkey FOLR1 extracellular …; assay: BLI, Ag 15.6 nM over Ab on anti-hIgG Fc tip
# [7] = biological target: T3, human FOLR1 extracellular domain linked …; assay: BLI, Ag 15.6 nM over Ab on anti-hIgG Fc tip
# [8] = biological target: T1, rat FOLR1 extracellular domain linked …; assay: BLI, global 1:1 fit (31.3 nM row); all responses below quantification
# [9] = biological target: T1, rat FOLR1 extracellular domain linked …; assay: BLI, Ag 31.3 nM; * = below range of quantification
# [10] = biological target: T2, cynomolgus monkey FOLR1 extracellular …; assay: BLI, global 1:1 fit (62.5 nM row)
# [11] = biological target: T3, human FOLR1 extracellular domain linked …; assay: BLI, global 1:1 fit (62.5 nM row)
# [12] = biological target: T4, human FOLR2 extracellular domain linked …; assay: BLI, Ag 500 nM over Ab on anti-hIgG Fc tip
# [13] = biological target: T3, human FOLR1 extracellular domain linked …; assay: BLI, Ag 500 nM over Ab on anti-hIgG Fc tip
# [14] = biological target: T4, human FOLR2 extracellular domain linked …; assay: BLI, Ag 62.5 nM over Ab on anti-hIgG Fc tip
# [15] = biological target: T3, human FOLR1 extracellular domain linked …; assay: BLI, Ag 62.5 nM over Ab on anti-hIgG Fc tip
# [16] = biological target: T2, cynomolgus monkey FOLR1 extracellular …; assay: BLI, Ag 62.5 nM over Ab on anti-hIgG Fc tip
# [17] = biological target: T3, human FOLR1 extracellular domain linked …; assay: BLI, Ag 62.5 nM over Ab on anti-hIgG Fc tip; remark: listed apart in the source
# [18] = biological target: T5, mouse FOLR1 extracellular domain linked to His tag (mouse, UniProt P35846 25-232, limits assumed); assay: BLI, global 1:1 fit (31.3 nM row); only the 500 nM response quantifiable
# T5 construct: extracellular domain; Antigen in solution in BLI; also called Mouse-Ag; not shown: His tag
# [19] = biological target: T6, human FOLR3 extracellular domain linked to His tag (human, UniProt P41439 23-245, limits assumed); assay: BLI, global 1:1 fit (15.6 nM row); all responses below quantification
# T6 construct: extracellular domain; Antigen in solution in BLI; also called Hu-FRg; not shown: His tag
# [20] = biological target: T6, human FOLR3 extracellular domain linked …; assay: BLI, Ag 7.82 nM; * = below range of quantification
# [21] = biological target: T4, human FOLR2 extracellular domain linked …; assay: BLI, Ag 7.82 nM; * = below range of quantification
# [22] = biological target: T2, cynomolgus monkey FOLR1 extracellular …; assay: BLI, Ag 250 nM over Ab on anti-hIgG Fc tip
# [23] = biological target: T3, human FOLR1 extracellular domain linked …; assay: BLI, Ag 250 nM over Ab on anti-hIgG Fc tip
# [24] = biological target: T4, human FOLR2 extracellular domain linked …; assay: BLI, Ag 31.3 nM; * = below range of quantification
# T4 sequence (P14207 17-230 limits assumed): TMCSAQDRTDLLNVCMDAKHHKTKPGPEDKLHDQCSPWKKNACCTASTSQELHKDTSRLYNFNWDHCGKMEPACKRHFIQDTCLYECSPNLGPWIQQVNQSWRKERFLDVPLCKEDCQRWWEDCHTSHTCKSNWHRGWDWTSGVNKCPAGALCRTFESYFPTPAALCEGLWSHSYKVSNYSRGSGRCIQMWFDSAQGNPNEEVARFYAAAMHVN
# T3 sequence (P15328 25-233 limits assumed): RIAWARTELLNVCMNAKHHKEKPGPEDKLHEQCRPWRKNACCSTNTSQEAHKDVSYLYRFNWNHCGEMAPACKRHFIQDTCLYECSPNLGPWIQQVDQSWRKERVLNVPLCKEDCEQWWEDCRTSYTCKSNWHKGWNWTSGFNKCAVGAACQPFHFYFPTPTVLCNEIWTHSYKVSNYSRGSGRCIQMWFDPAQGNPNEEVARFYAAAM
# T5 sequence (P35846 25-232 limits assumed): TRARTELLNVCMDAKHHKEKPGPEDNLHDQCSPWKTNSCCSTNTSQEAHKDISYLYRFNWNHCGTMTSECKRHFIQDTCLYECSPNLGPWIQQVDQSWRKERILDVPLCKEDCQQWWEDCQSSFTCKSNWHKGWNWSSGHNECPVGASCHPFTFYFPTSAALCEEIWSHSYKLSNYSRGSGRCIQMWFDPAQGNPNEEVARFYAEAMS
# T6 sequence (P41439 23-245 limits assumed): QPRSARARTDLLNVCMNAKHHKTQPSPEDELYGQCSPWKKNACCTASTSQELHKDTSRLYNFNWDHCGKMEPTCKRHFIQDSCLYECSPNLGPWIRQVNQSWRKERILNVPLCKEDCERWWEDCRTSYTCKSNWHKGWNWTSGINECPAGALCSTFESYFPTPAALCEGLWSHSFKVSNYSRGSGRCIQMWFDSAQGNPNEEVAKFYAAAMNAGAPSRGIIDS
# T2 sequence (A0A2K5U044 entry or part of it): as the sequence (P15328 25-233 limits assumed) above, with I2T, W4R, R37K, A146P, H171Y counted along it
binder,measurement,setting,value
B1,koff,[1],1.03 s⁻¹
same,kon,[1],5490 M⁻¹ s⁻¹
same,Kd,[2],8.15 nM
same,koff,[2],0.00157 s⁻¹
same,kon,[2],193000 M⁻¹ s⁻¹
same,Kd,[3],1.53 nM
same,koff,[3],0.000338 s⁻¹
same,kon,[3],221000 M⁻¹ s⁻¹
same,Kd,[4],142 nM
same,koff,[4],0.0784 s⁻¹
same,kon,[4],552000 M⁻¹ s⁻¹
same,Kd,[5],5.3 nM
same,koff,[5],0.0012 s⁻¹
same,kon,[5],226000 M⁻¹ s⁻¹
same,Response,[6],0.0485
same,Response,[7],0.0503
same,koff,[8],1.03 s⁻¹
same,kon,[8],5490 M⁻¹ s⁻¹
same,Response,[9],-0.00532
same,Kd,[10],8.15 nM
same,koff,[10],0.00157 s⁻¹
same,kon,[10],193000 M⁻¹ s⁻¹
same,Kd,[11],1.53 nM
same,koff,[11],0.000338 s⁻¹
same,kon,[11],221000 M⁻¹ s⁻¹
same,Response,[12],0.037
same,Response,[13],0.192
same,Response,[14],0.0356
same,Response,[15],0.117
same,Response,[16],0.14
same,Response,[17],0.12
same,Kd,[18],2960 nM
same,koff,[18],0.301 s⁻¹
same,kon,[18],102000 M⁻¹ s⁻¹
same,koff,[19],0.217 s⁻¹
same,kon,[19],1660 M⁻¹ s⁻¹
same,Response,[20],0.00103
same,Response,[21],0.0011
same,Response,[22],0.209
same,Response,[23],0.162
same,Response,[24],0.0068
B2,koff,[1],0.224 s⁻¹
same,kon,[1],2.64e+06 M⁻¹ s⁻¹
same,Kd,[2],8.82 nM
same,koff,[2],0.0016 s⁻¹
same,kon,[2],181000 M⁻¹ s⁻¹
same,Kd,[3],4.8 nM
same,koff,[3],0.00107 s⁻¹
same,kon,[3],224000 M⁻¹ s⁻¹
same,Kd,[4],84.4 nM
same,koff,[4],0.0813 s⁻¹
same,kon,[4],963000 M⁻¹ s⁻¹
same,Kd,[5],4.79 nM
same,koff,[5],0.00121 s⁻¹
same,kon,[5],252000 M⁻¹ s⁻¹
same,Response,[6],0.0384
same,Response,[7],0.0447
same,koff,[8],0.224 s⁻¹
same,kon,[8],2.64e+06 M⁻¹ s⁻¹
same,Response,[9],-0.00454
same,Kd,[10],8.82 nM
same,koff,[10],0.0016 s⁻¹
same,kon,[10],181000 M⁻¹ s⁻¹
same,Kd,[11],4.8 nM
same,koff,[11],0.00107 s⁻¹
same,kon,[11],224000 M⁻¹ s⁻¹
same,Response,[12],0.0427
same,Response,[13],0.222
same,Response,[14],0.0379
same,Response,[15],0.138
same,Response,[16],0.121
same,Response,[17],0.129
same,Kd,[18],2870 nM
same,koff,[18],0.266 s⁻¹
same,kon,[18],92600 M⁻¹ s⁻¹
same,koff,[19],0.233 s⁻¹
same,Response,[20],0.0004
same,Response,[21],0.002
same,Response,[22],0.18
same,Response,[23],0.184
same,Response,[24],0.0076
